Results from patent publication US20080108569A1, “Compositions and Methods for Treating Diseases Associated With Phlpp” (The Regents of the University of California, priority 2005, published 2008).

B1: PHLPP: PH domain Leucine rich repeat Protein Phosphatase; HA-PHLPP-1α construct transfected into LN229 glioblastoma cells (SEQ ID NO: 2) (protein, listed as Homo sapiens)
chain: MDSEIGCLIRFYAGKPHSTGSSERIQLSGMYNVRKGKMQLPVNRWTRRQVILCGTCLIVSSVKDSLTGKMHVLPLIGGKVEEVKKHQHCLAFSSSGPQSQTYYICFDTFTEYLRWLRQVSKVASQRISSVDLSCCSLEHLPANLFYSQDLTHLNLKQNFLRQNPSLPAARGLNELQRFTKLKSLNLSNNHLGDFPLAVCSIPTLAELNVSCNALRSVPAAVGVMHNLQTFLLDGNFLQSLPAELENMKQLSYLGLSFNEFTDIPEVLEKLTAVDKLCMSGNCVETLRLQALRKMPHIKHVDLRLNVIRKLIADEVDFLQHVTQLDLRDNKLGDLDAMIFNNIEVLHCERNQLVTLDICGYFLKALYASSNELVQLDVYPVPNYLSYMDVSRNRLENVPEWVCESRKLEVLDIGHNQICELPARLFCNSSLRKLLAGHNQLARLPERLERTSVEVLDVQHNQLLELPPNLLMKADSLRFLNASANKLESLPPATLSEETNSILQELYLTNNSLTDKCVPLLTGHPHLKILHMAYNRLQSFPASKMAKLEELEEIDLSGNKLKAIPTTIMNCRRMHTVIAHSNCIEVFPEVMQLPEIKCVDLSCNELSEVTLPENLPPKLQELDLTGNPRLVLDHKTLELLNNIRCFKIDQPSTGDASGAPAVWSHGYTEASGVKNKLCVAALSVNNFCDNREALYGVFDGDRNVEVPYLLQCTMSDILAEELQKTKNEEEYMVNTFIVMQRKLGTAGQKLGGAAVLCHIKHDPVDPGGSFTLTSANVGKCQTVLCRNGKPLPLSRSYIMSCEEELKRIKQHKAIITEDGKVNGVTESTRILGYTFLHPSVVPRPHVQSVLLTPQDEFFILGSKGLWDSLSVEEAVEAVRNVPDALAAAKKLCTLAQSYGCHDSISAVVVQLSVTEDSFCCCELSAGGAVPPPSPGIFPPSVNMVIKDRPSDGLGVPSSSSGMASEISSELSTSEMSSEVGSTASDEPPPGALSENSPAYPSEQRCMLHPICLSNSFQRQLSSATFSSAFSDNGLDSDDEEPIEGVFTNGSRVEVEVDIHCSRAKEKEKQQHLLQVPAEASDEGIVISANEDEPGLPRKADFSAVGTIGRRRANGSVAPQERSHNVIEVATDAPLRKPGGYFAAPAQPDPDDQFIIPPELEEEVKEIMKHHQEQQQQQQPPPPPQLQPQLPRHTQLDQLPDYYDTPL
modifications: HA tag
B2: PHLPP2 PP2C domain: GST-tagged PP2C domain of PHLPP2 (residues 780-1030) expressed in bacteria (protein)
chain: TSTFWSHGLAEMAGQRNKLCVSALAMDSFAEGVGAVYGMFDGDRNEELPRLLQCTMADVLLEEVQQSTNDTVFMANTFLVSHRKLGMAGQKLGSSALLCYIRPDTADPASSFSLTVANVGTCQAVLCRGGKPVPLSKVFSLEQDPEEAQRVKDQKAIITEDNKVNGVTCCTRMLGCTYLYPWILPKPHISSTPLTIQDELLILGNKALWEHLSYTEAVNAVRHVQDPLAAAKKLCTLAQSYGCQDNVGAMV
modifications: left off: a dimerising Fc or GST
notes: GST-tagged PP2C domain of PHLPP2 (residues 780-1030) expressed in bacteria

What was measured:
LN229 cells [1] = assay: growth rate of glioblastoma cells transfected with PHLPP (viable cells in G418 media); type: cell-based, human; details: glioblastoma cell line wild-type in PTEN
Experimental: (§1) LN229 cells were transfected with vector, HA-PHLPP or HA-ΔC. Approximately 30 hours post-transfection, the cells were switched to selection media (DMEM, 10% FBS, 1% penicillin/streptomycin and 800 μg/ml G418). The viable cells were counted after 7 days in selection media. The number of viable cells reflects the effect of PHLPP on cell proliferation. The G418 resistant stable cells were propagated and expanded for an additional 2-3 passages to obtain the number of cells needed for mice injection. For subcutaneous inoculation, 3×10^6 or 5×10^6 cells were injected into 4- to 5-week old female nude mice of BALB/c background. The size of tumors was measured once a week with a caliper, and tumor volumes were defined as (longest diameter)×(shortest diameter)^2×0.5. Tumors were excised from individual mice and flash frozen in liquid N2. The tumor samples were homogenized in buffer A, and detergent-solubilized lysates were subjected to SDS-PAGE and Western blotting analysis.

LN229 cells [2] = assay: tumorigenicity of subcutaneously injected glioblastoma cells transfected with PHLPP; type: in vivo, nude mice of BALB/c background; details: subcutaneous injection
Experimental: as §1

Akt = biological target: T1, Akt (Homo sapiens, UniProt P31749); assay: phosphatase assay with purified GST-tagged PHLPP2 PP2C domain and pure phosphorylated Akt; type: biochemical; details: in 5 minutes, pure
T1 construct: 6His; made in house; host or cells: Akt1: baculovirus-infected Sf21 cells; HA-PHLPP2: transfected 293T cells, immunoprecipitated with HA antibody
T1 sequence (P31749 whole entry, the tested form may be a part): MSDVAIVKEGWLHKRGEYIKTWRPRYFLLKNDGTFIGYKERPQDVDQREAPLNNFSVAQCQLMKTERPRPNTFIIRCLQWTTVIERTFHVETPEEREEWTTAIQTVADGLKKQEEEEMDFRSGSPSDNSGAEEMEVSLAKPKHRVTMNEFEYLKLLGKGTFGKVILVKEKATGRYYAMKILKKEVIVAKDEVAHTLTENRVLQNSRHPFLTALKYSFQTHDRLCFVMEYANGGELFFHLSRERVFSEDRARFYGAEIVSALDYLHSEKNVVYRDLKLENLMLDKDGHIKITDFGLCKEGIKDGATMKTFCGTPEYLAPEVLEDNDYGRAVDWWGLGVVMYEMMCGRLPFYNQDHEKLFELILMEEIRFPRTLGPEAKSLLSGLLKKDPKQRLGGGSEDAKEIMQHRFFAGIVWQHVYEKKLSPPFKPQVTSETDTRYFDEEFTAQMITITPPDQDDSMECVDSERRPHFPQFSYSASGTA
Experimental: A GST-fusion protein of PHLPP-1α-PP2C was expressed in BL21 (DE3) and purified using glutathione-Sepharose. The GST-PP2C proteins were eluted from the beads in PBS containing 10 mM glutathione and 1 mM DTT, and dialyzed against 50 mM Tris (pH 7.4) and 1 mM DTT. His-tagged Akt was expressed and purified from baculovirus-infected Sf21 cells. Briefly, Sf21 cells were maintained in SF-900 II media (Invitrogen) and infected with baculovirus encoding His-Akt for 3 days. To obtain maximally phosphorylated Akt as substrate, the infected cells were treated with 10% FBS and calyculin A (100 nM) for 15 minutes prior to lysis. The infected cells were lysed in PBS containing 1% Triton X-100 and 10 mM imidazole, and His-Akt proteins were purified using Ni-NTA beads (Qiagen). The dephosphorylation reactions were carried out in a reaction buffer containing 50 mM Tris (pH 7.4), 1 mM DTT and 5 mM MnCl2 at 30° C. for 0-30 minutes. […]
GST-PP2C was expressed in BL21 bacterial cells; phosphatase assays were performed using the purified GST-PP2C construct conjugated to glutathione-sepharose and pure Akt as a substrate as described above. The activity of full length HA-PHLPP2 was assessed by expressing and immunoprecipitating PHLPP2 from 293T or H157 cell lysates. […]

Molecule	decrease of the growth rate (LN229 cells [1])	ability of the cells to induce tumors (LN229 cells [2])	dephosphorylation of Ser 473 (P473) (Akt)	dephosphorylation of Thr 308 (P308) (Akt)
B1	approximately 50%	dramatically reduces	–	–
B2	–	–	82+6%	70+2%
